This data set concerns the target NS1 (dengue virus serotype 2) (Dengue virus serotype 2, UniProt P29990 776-1127). Briefly: filter binding. The following applies: protein: commercial; chain copies: 2.

Results on two molecules are retold here after paper PMC10215423, “The Diagnostic Potential of RNA Aptamers against the NS1 Protein of Dengue Virus Serotype 2”.

Sequence of NS1 (dengue virus serotype 2) (P29990 776-1127): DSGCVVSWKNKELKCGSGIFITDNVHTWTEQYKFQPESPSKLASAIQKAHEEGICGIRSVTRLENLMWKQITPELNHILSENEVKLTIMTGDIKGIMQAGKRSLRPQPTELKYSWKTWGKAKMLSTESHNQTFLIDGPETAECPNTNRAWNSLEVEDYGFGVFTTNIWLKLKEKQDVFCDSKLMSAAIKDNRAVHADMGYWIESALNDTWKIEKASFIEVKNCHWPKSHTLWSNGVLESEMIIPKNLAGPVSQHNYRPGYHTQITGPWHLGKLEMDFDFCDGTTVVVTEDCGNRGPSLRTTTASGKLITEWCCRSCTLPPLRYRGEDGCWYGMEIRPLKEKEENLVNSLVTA

B1: DENV-6 (structured_RNA)
RNA: GGAGCUCAGCCUUCACUGCCGUAGUCGUAUCUCCAUUACCCAGAAUGGUGAUGCGCCGUGAAGAGCGGUUUAGGGAAUUGGCACCACGGUCGGAUCCAC
By Kd is commonly meant the free concentration of one partner at which half of the binding sites on the other are occupied at equilibrium, for simple one-to-one binding. Higher therefore signals lower affinity. With B1, the Kd came to 41.4 ± 9.29 nM.

B2: DENV-3 (structured_RNA)
RNA: GGAGCUCAGCCUUCACUGCUUUGAUCUCGUGGGGGUGUGUCGCGGGAGACACCAUGGAAUAUAUGGCUGAUUUCAUGUGGGCACCACGGUCGGAUCCAC
For B2, the Kd amounted to 37.6 ± 10.3 nM.
